Legend:
[1] = target: T1, human BCMA on BCMA expressing cell lines (human, UniProt Q02223 1-184); assay: cell-based or functional assay
T1 sequence: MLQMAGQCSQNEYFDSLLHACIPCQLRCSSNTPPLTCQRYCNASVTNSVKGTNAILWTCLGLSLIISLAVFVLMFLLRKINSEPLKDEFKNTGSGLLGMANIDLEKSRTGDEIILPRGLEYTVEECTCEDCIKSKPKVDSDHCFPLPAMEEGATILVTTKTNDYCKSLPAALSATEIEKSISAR

[2] = target: T2, human BCMA protein (human, UniProt Q02223 1-54, limits assumed); assay: affinity to human BCMA protein, method not stated
T2 sequence: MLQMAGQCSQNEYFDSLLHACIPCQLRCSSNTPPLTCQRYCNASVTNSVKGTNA

Binder | TDCC EC50 (EJM cells) [1] | Kd [2]
BCMA targeting trispecific protein 01D03 (other, trispecific; not shown: anti-albumin domain, anti-CD3 domain and the linkers of the trispecific (TriTAC) format) VHH: EVQLVESGGGLVQPGRSLTLSCAASTNIFSNSPMGWYRQAPGKQRELVAAIHGDSTLYADSVKGRFTISRDNAKNSIYLQMNSLRPEDTALYYCNKVPWGDYHPRNVRWGQGTQVTVSS | 0.0149 nM | 20.9 nM
BCMA targeting trispecific protein 01D06 (other, trispecific; not shown: anti-albumin domain, anti-CD3 domain and the linkers of the trispecific (TriTAC) format) VHH: EVQLVESGGGLVQPGRSLTLSCAASTNIFSRSPMGWYRQAPGKQRELVAAIHGDSTLYADSVKGRFTISRDNAKNSIYLQMNSLRPEDTALYYCNKVPWGDYHPRNVTWGQGTQVTVSS | 0.0135 nM | 14.9 nM
BCMA targeting trispecific protein 01F04 (other, trispecific; not shown: the C-terminal His6 follows those missing domains and is left out) VHH: EVQLVESGGGLVQPGRSLTLSCAASTNIDSISPMGWYRQAPGKQRELVAAIHGFQTLYADSVKGRFTISRDNAKNSIYLQMNSLRPEDTALYYCNKVPWGDYHPGNVYWGQGTQVTVSS | 0.00221 nM | 6.55 nM
BCMA targeting trispecific protein 01H04 (other, trispecific; not shown: anti-albumin domain, anti-CD3 domain and the linkers of the trispecific (TriTAC) format) VHH: EVQLVESGGGLVQPGRSLTLSCAASTNIFSKSPMGWYRQAPGKQRELVAAIHGQSTLYADSVKGRFTISRDNAKNSIYLQMNSLRPEDTALYYCNKVPWGDYHPRNVTWGQGTQVTVSS | 0.0147 nM | 17.4 nM
BCMA targeting trispecific protein 01F02 (other, trispecific; not shown: anti-albumin domain, anti-CD3 domain and the linkers of the trispecific; the C-terminal His6 that follows them is left out) VHH: EVQLVESGGGLVQPGRSLTLSCAASTNIFSHSPMGWYRQAPGKQRELVAAIHGTSTLYADSVKGRFTISRDNAKNSIYLQMNSLRPEDTALYYCNKVPWGRYHPRNVYWGQGTQVTVSS | 0.225 nM | 41.3 nM
BCMA targeting trispecific protein 01E10 (other, trispecific; not shown: the C-terminal 6xHis tag follows those domains and is left out) VHH: EVQLVESGGGLVQPGRSLTLSCAASTNIESISPMGWYRQAPGKQRELVAAIHGKSTLYADSVKGRFTISRDNAKNSIYLQMNSLRPEDTALYYCNKVPWGDYHPRRVYWGQGTQVTVSS | 0.0623 nM | 18.5 nM
BCMA targeting trispecific protein 01F08 (other, trispecific; not shown: the C-terminal 6xHis tag follows those domains and is left out) VHH: EVQLVESGGGLVQPGRSLTLSCAASTNITSVSPMGWYRQAPGKQRELVAAIHGPSTLYADSVKGRFTISRDNAKNSIYLQMNSLRPEDTALYYCNKVPWGDYHPTNVYWGQGTQVTVSS | 0.0712 nM | 21.4 nM
BCMA targeting trispecific protein 01D10 (other, trispecific; not shown: anti-albumin domain, anti-CD3 domain and the linkers of the trispecific; the C-terminal His6 that follows them is left out) VHH: EVQLVESGGGLVQPGRSLTLSCAASTNIFSASPMGWYRQAPGKQRELVAAIHGSSTLYADSVKGRFTISRDNAKNSIYLQMNSLRPEDTALYYCNKVPWGRYHPRNVYWGQGTQVTVSS | 0.453 nM | 53.9 nM
BCMA targeting trispecific protein 01F09 (other, trispecific; not shown: anti-albumin domain, anti-CD3 domain and the linkers of the trispecific; the C-terminal His6 that follows them is left out) VHH: EVQLVESGGGLVQPGRSLTLSCAASTNISSISPMGWYRQAPGKQRELVAAIHGHSTLYADSVKGRFTISRDNAKNSIYLQMNSLRPEDTALYYCNKVPWGRYHPRNVYWGQGTQVTVSS | 0.945 nM | 52.8 nM
BCMA targeting trispecific protein 01G01 (other, trispecific; not shown: the C-terminal 6xHis tag follows those missing domains and is left out) VHH: EVQLVESGGGLVQPGRSLTLSCAASTNIVSISPMGWYRQAPGKQRELVAAIHGDSTLYADSVKGRFTISRDNAKNSIYLQMNSLRPEDTALYYCNKVPWGDYHPRRVYWGQGTQVTVSS | 0.00583 nM | 14.6 nM
BCMA targeting trispecific protein 01E08 (other, not shown: large carriers; small tags and cut ends, trispecific) VHH: EVQLVESGGGLVQPGRSLTLSCAASTNIFSQSPMGWYRQAPGKQRELVAAIHGDSTLYADSVKGRFTISRDNAKNSIYLQMNSLRPEDTALYYCNKVPWGDYHPGNVCWGQGTQVTVSS | 0.0015 nM | 5.56 nM
BCMA targeting trispecific protein 01F12 (other, trispecific; not shown: anti-albumin domain, anti-CD3 domain and the linkers of the trispecific; the C-terminal His6 that follows them is left out) VHH: EVQLVESGGGLVQPGRSLTLSCAASTNIFRISPMGWYRQAPGKQRELVAAIHGDSTLYADSVKGRFTISRDNAKNSIYLQMNSLRPEDTALYYCNKVPWGRYHPRNVYWGQGTQVTVSS | 0.392 nM | 40.5 nM
BCMA targeting trispecific protein 01F05 (other, trispecific; not shown: The C-terminal 6xHis tag is left out because it follows these missing domains) VHH: EVQLVESGGGLVQPGRSLTLSCAASTNIFSSSPMGWYRQAPGKQRELVAAIHGFSTWYADSVKGRFTISRDNAKNSIYLQMNSLRPEDTALYYCNKVPWGRYHPRNVYWGQGTQVTVSS | 0.0372 nM | 16.7 nM
BCMA targeting trispecific protein 01F03 (other, trispecific; not shown: the C-terminal 6xHis tag follows those domains and is left out) VHH: EVQLVESGGGLVQPGRSLTLSCAASTNIFSESPMGWYRQAPGKQRELVAAIHGNSTLYADSVKGRFTISRDNAKNSIYLQMNSLRPEDTALYYCNKVPWGTYHPRNVYWGQGTQVTVSS | 0.0764 nM | 15 nM
BCMA targeting trispecific protein 01G04 (other, not shown: large carriers; small tags and cut ends, trispecific) VHH: EVQLVESGGGLVQPGRSLTLSCAASTNIDSISPMGWYRQAPGKQRELVAAIHGNSTLYADSVKGRFTISRDNAKNSIYLQMNSLRPEDTALYYCNKVPWGDYHPRMVYWGQGTQVTVSS | 0.0241 nM | 11.7 nM
